Laboratory results as given in patent US20120107933A1 (GOVERNMENT OF THE UNITED STATES AS REPRESENTED BY THE …, published 2012).

What was measured:
[1] = biological target: human mesothelin on the cell surface (A431/H9 transfectants and human cancer cell lines) (human) (UniProt Q13421); test: cell-based or functional assay
[2] = biological target: rabbit IgG Fc-human mesothelin fusion protein (full-length extracellular domain, 296-581) (rabbit; human) (UniProt Q13421); test: SPR (Biacore T100), […], kinetic titration
[3] = biological target: T1, rabbit IgG Fc-human mesothelin fusion protein (full-length extracellular domain, 296-581) (rabbit; human, UniProt Q13421 296-581)
[4] = biological target: T1, rabbit IgG Fc-human mesothelin fusion …; test: SPR (Biacore T100), rFc-mesothelin injected over amine-coupled HN1 mAb, kinetic titration
Description: Binding experiments were performed on a BIACORE T100 instrument (GE Healthcare, Piscataway N.J.). […] Hepes buffer (pH-7.4) is used as the running buffer. The rFc-mesothelin (20 μg/mL) was captured on the CM5 sensor chip using a manual injection targeting about 500 RU density. […] Data were fit to a simple 1:1 interaction model, a heterogeneous ligand model or a two state binding model using the global data analysis software provided by GE Healthcare (Biaevaluation 4.1).

[5] = biological target: human mesothelin (form not stated) (human, UniProt Q13421 296-581)
[6] = biological target: T2, mouse mesothelin (form not stated) (mouse, UniProt Q61468 298-600)
T2 sequence (looked up): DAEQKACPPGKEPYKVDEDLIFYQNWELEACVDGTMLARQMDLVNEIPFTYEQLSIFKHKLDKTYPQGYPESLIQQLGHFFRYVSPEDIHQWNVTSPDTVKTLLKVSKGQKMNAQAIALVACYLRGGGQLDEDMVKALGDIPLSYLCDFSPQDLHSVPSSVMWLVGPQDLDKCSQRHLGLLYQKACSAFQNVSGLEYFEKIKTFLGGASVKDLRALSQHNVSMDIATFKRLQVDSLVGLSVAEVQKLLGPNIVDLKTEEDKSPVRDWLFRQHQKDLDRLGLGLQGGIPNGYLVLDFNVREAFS

human mesothelin on the cell surface (A431/H9 transfectants and human cancer cell lines) (human), sequence (Q13421 other isoform, or with tags, fused parts or gaps limits assumed): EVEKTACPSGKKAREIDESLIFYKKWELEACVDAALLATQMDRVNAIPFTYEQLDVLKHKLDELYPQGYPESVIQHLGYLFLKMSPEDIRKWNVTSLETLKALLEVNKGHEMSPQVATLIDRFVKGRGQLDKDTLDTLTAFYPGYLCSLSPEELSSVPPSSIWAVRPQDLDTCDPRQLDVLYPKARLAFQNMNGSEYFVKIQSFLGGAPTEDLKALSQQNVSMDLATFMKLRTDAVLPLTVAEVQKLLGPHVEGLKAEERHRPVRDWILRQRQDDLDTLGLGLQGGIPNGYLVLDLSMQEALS
human mesothelin (form not stated), sequence (Q13421 other isoform, or with tags, fused parts or gaps limits assumed): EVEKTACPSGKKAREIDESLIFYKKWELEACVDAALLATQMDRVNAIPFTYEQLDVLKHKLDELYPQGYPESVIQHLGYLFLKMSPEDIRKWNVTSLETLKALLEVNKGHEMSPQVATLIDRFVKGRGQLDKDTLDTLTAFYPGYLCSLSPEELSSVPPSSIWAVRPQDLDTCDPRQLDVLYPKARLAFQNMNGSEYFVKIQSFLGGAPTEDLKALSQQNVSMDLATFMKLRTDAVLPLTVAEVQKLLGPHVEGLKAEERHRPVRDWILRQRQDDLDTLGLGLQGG

Molecule: HA22, an anti-CD22 scFv
- Cytotoxic Assays (WST), IC50 of cell viability, H9 cells [1]: > 1 µg/mL
- Cytotoxic Assays (WST), IC50 of cell viability, H226 cells [1]: > 1 µg/mL

Molecule: HN1 scFv immunotoxin (HN1 scFv fused to truncated Pseudomonas exotoxin PE38) (from UniProt P11439 278-389; P11439 406-638)
- Cytotoxic Assays (WST), IC50 of cell viability, H226 cells [1]: 0.013 µg/mL
- Kd [2]: 100 nM

B1: HN1 fully human IgG (IgG gamma1 kappa) (antibody, V domains shown)
VH: QVQLVQSGAEVKRPGASVQVSCRASGYSINTYYMQWVRQAPGAGLEWMGVINPSGVTSYAQKFQGRVTLTNDTSTNTVYMQLNSLTSADTAVYYCARWALWGDFGMDVWGKGTLVTVSS
VL: DIQMTQSPSTLSASIGDRVTITCRASEGIYHWLAWYQQKPGKAPKLLIYKASSLASGAPSRFSGSGSGTDFTLTISSLQPDDFATYYCQQYSNYPLTFGGGTKLEIKR
notes: also called HN1 IgG; HN1 mAb
- fold better affinity than the scFv molecule [3]: > 30 fold
- Kd [4]: 3 nM

B2: HN1 antibody (form not stated) (antibody, V domains shown)
VH: B1 VH
VL: DIQMTQSPSTLSASIGDRVTITCRASEGIYHWLAWYQQKPGKAPKLLIYKASSLASGAPSRFSGSGSGTDFTLTISSLQPDDFATYYCQQYSNYPLTFGGGTKLEIK
- Kd [5]: ~7.5 nM

B3: HN2 antibody (form not stated) (antibody, V domains shown)
VH: EVQLLESGGGLVQPGGSLRPSCAASGFTFSSYAMSWVRQAPGKGLEWVSAISGSGGSTHYADSVKGRFTISRDNSKNTLYLQMNSLRAEDTAVYYCVRGGALGFDNWGRGTMVTVSS
VL: VLTQPPSVSEAPRQRVTISCSGSTSNIGSNVVNWYQQFPGKPPKVVIYYDDLVASGVSDRFSGSRSGTSASLAISGLQSEDEADYYCSAWDDSLNAWVFGGGTKVTV
- Kd [5]: ~1.5 nM
- Kd [6]: ~1.5 nM
